Measurements reported in patent US12102653B2, “Ligand regulated protein-protein interaction system” (ST. ANNA KINDERKREBSFORSCHUNG, priority 2017, dated 2024).

B1: RS3: rcSso7d-based lipocalin-fold binding interaction partner binding RBP4 in an A1120-dependent manner (protein)
chain: ATVKLTYQGEEKQVDISKIKRVARYGQNIYFSYDEGGGAYDYGAVSEKDAPKELLQMLEKQ
B2: RS5: rcSso7d-based lipocalin-fold binding interaction partner binding RBP4 in an A1120-dependent manner (protein)
chain: ATVKFTYQGEEKQVDISKIKRVARYGQGIYFDYGEGGGAWGYGSVSEEDAPKELLQMLEKQ
B3: RF2: FN3-based lipocalin-fold binding interaction partner binding RBP4 in an A1120-dependent manner (protein)
chain: VSDVPRDLEVVAATPTSLLISWYYPNASHAGYYRITYGETGGNSPVQEFTVPFSIRYTIATISGLKPGVDYTITVYAVTDYAYYYRLSEPISINYRTEIDKPSQ

Key:
[1] = target: T1, RBP4 (Homo sapiens, UniProt P02753); settings: ligand-induced conformational changes of human RBP4; cited from earlier work
[2] = target: T1, RBP4; assay: Isothermal titration calorimetry (ITC) of binder-RBP4 interaction; type: binding; design: Human His-tagged RBP4 (residues 19-201) in pPICZ-alpha-A vector; made in house; host or cells: Pichia pastoris KM71H (secreted); settings: presence (50 μM) and absence of A1120
Description: For the thermodynamic characterization of the interaction between RBP4 and rcSso7d- or FN3-based lipocalin-fold binding interaction partners, isothermal titration calorimetry (ITC) is conducted using an automated MicroCal PEAQ-ITC instrument (Malvern Instruments). The samples are centrifuged (17,000 g, 10 min, 20° C.) and filtered (0.1 μm Ultrafree-MC filter, Merck Millipore). RBP4 protein solution is applied to the sample cell and the respective binders are titrated with varying intervals. Different concentrations both for RBP4 and binders are used and in some experiments, binders are applied to the sample cell and RBP4 is titrated. The experiments are performed both in the presence and absence of the ligand A1120 or other ligands. Data analysis is performed with the MicroCal PEAQ-ITC analysis software.
For the thermodynamic characterization of the interaction between RBP4 and rcSso7d- or FN3-based lipocalin-fold binding interaction partners (in this case RBP4 binding interaction partners), isothermal titration calorimetry (ITC) was conducted using the PEAQ Isothermal Titration Calorimeter Automated (Malvern Panalytical). The samples were centrifuged (17000 g, 10 min, 20° C.) and dialysed against the same buffer (PBS). RBP4 protein solution was applied to the sample cell and the respective RBP4 binding interaction partners were titrated with varying intervals. Different concentrations both for RBP4 and RBP4 binding interaction partners were used. […] Data analysis was performed with the MicroCal PEAQ-ITC analysis software and the resulting data were fitted to a one-set-of-sites binding model. […] The signature plots show the thermodynamic parameters of the interaction between RBP4 and RS3. One representative experiment out of four independent experiments is shown. […] The integrated data were fitted to one-set-of-sites binding model to calculate the KD values in FIG. 18. Signature plots show the thermodynamic parameters of the interaction. One representative experiment out of four independent experiments is shown.

[3] = Differential scanning calorimetry (DSC) of RBP4 binding interaction partners; settings: 80 μM protein, 20-110° C.
Description: The stability of RBP4-binding interaction partners is evaluated by determining the melting temperature (Tm) by differential scanning calorimetry (DSC) using MicroCal VP-DSC capillary cell microcalorimeter (MicroCal). Briefly, 30 μM protein solution is exposed to an increasing temperature ranging from 20-110° C. with a heating rate of 1° C./min. Buffer baseline is subtracted and the resulting data are normalized for protein concentration, followed by fitting with a non-two-state thermal unfolding model.
The thermal stability of RBP4 binding interaction partners was evaluated by determining the melting temperature (Tm) by differential scanning calorimetry (DSC) using the PEAQ Differential Scanning Calorimeter Automated (Malvern Panalytical). Briefly, 80 μM protein solution was exposed to an increasing temperature ranging from 20-110° C. with a heating rate of 1° C./min. Buffer baseline was subtracted and the resulting data were normalized for protein concentration, followed by fitting with a non-two-state thermal unfolding model.

[4] = Analytical size exclusion chromatography (SEC) of RBP4 binding interaction partners; type: physicochemical; settings: PBS with 200 mM NaCl, 25° C.
Description: For analytical SEC analysis, a total amount of 25 μg rcSso7d or FN3 mutants in running buffer (PBS with 200 mM NaCl) is filtered through 0.1 μm Ultrafree-MC filter (Merck Millipore), applied to a Superdex 200 10/300 GL column (GE healthcare) connected to an HPLC prominence LC20 system (Shimadzu) and eluted with a flow rate of 0.75 mL/min at 25° C. In addition, multi-angle light scattering (MALS) is used for determining the molecular mass using WYATT Heleos Dawn8+ plus QELS, a refractive index detector RID-10A (Shimadzu) and a diode array detector SPD-M20A (Shimadzu).
For analytical SEC analysis, a total amount of 25 μg of RBP4 binding interaction partners in running buffer (PBS with 200 mM NaCl) was filtered through a 0.1 μm Ultrafree-MC filter (Merck Millipore), applied to a Superdex 200 10/300 GL column (GE healthcare) connected to an HPLC Prominence LC20 system (Shimadzu) and eluted with a flow rate of 0.75 mL/min at 25° C.

[5] = target: T1, RBP4; assay: Surface plasmon resonance (SPR), RBP4 immobilized on chip; type: binding; design: Human His-tagged RBP4 (residues 19-201) in pPICZ-alpha-A vector; made in house; host or cells: Pichia pastoris KM71H (secreted); settings: for dependence of affinity to RBP4 on the lipocalin-fold ligand A1120: SPR, presence (5 μM) and absence of A1120
Description: Surface plasmon resonance (SPR) is used to determine the affinity of the interaction between RBP4 and rcSso7d- or FN3-based lipocalin-fold binding interaction partners and is performed with BiacoreT200 (GE healthcare). The antigen (RBP4) is coated onto a chip and incubated with various concentrations of binder solution in PBS, followed by a dissociation phase in PBS only. All measurements are performed both in the presence and absence of A1120 or other ligands. Finally, kon, koff and Kd values are obtained by global fitting.
Surface plasmon resonance (SPR) was used to determine the affinity of the interaction between RBP4 and rcSso7d- or FN3-based lipocalin-fold binding interaction partners and was performed with BiacoreT200 (GE Healthcare). The antigen (RBP4) was coated onto a CM5 chip (GE Healthcare) and incubated with various concentrations of lipocalin-fold binding interaction partner solution in HBS-EP (GE Healthcare), followed by a dissociation phase in HBS-EP. […] Finally, Kd values (dissociation constants) were obtained by steady-state analysis. […] KD values were calculated by steady-state analysis (right diagram in A and C). One representative experiment out of four independent experiments is shown.

Row | Molecule | effect of ligand on the RBP4-TTR interaction [1] | dependence of affinity to RBP4 on the lipocalin-fold ligand A1120 [2] | thermal stability (DSC analysis) [3] | folding and oligomeric state (SEC analysis) [4] | dependence of affinity to RBP4 on the lipocalin-fold ligand A1120 [5] | SPR binding signal to RBP4 ([5]; absence of A1120, same RS3 concentrations as used with 5 μM A1120)
1 | CC1=C(/C=C/C(C)=C/C=C/C(C)=C/C(=O)Nc2ccc(O)cc2)C(C)(C)CCC1 [Fenretinide, 15-[(4-hydroxyphenyl)amino]retinal] | dissociation from TTR | – | – | – | – | –
2 | CCNC(=O)/C=C(C)/C=C/C=C(C)/C=C/C1=C(C)CCCC1(C)C [N-Ethylretinamide] | dissociation from TTR | – | – | – | – | –
3 | CC1=C(/C=C/C(C)=C/C=C/C(C)=C/C(=O)O)C(C)(C)CCC1 [all-trans retinoic acid] | dissociation from TTR | – | – | – | – | –
4 | C/C=C(C)/C=C/C=C(C)/C=C/C1=C(C)CCCC1(C)C [axerophthene] | dissociation from TTR | – | – | – | – | –
5 | CC(=O)OC/C=C(C)/C=C/C=C(C)/C=C/C1=C(C)CCCC1(C)C [retinyl acetate] | dissociation from TTR | – | – | – | – | –
6 | B1 | – | strongly depend on the presence of the lipocalin-fold ligand | stable proteins | well folded, monomeric proteins | strongly depend on the presence of the lipocalin-fold ligand | almost no signal
7 | B2 | – | strongly depend on the presence of the lipocalin-fold ligand | stable proteins | well folded, monomeric proteins | strongly depend on the presence of the lipocalin-fold ligand | –
8 | B3 | – | strongly depend on the presence of the lipocalin-fold ligand | – | well folded, monomeric proteins | strongly depend on the presence of the lipocalin-fold ligand | –
